{
  "source": "paper PMC9318647",
  "about": "“Human and Bacterial Toll-Interleukin Receptor Domains Exhibit Distinct Dynamic Features and Functions” (Molecules, 2022)",
  "molecules": {"B1": {"name": "human TLR1 TIR domain (TLR1-TIR), residues 625-786, untagged (domain or fragment, UniProt Q15399 625-786, looked up)", "chain": "NIPLEELQRNLQFHAFISYSGHDSFWVKNELLPNLEKEGMQICLHERNFVPGKSIVENIITCIEKSYKSIFVLSPNFVQSEWCHYELYFAHHNLFHEGSNSLILILLEPIPQYSIPSSYHKLKSLMARRTYLEWPKEKSKRGLFWANLRAAINIKLTEQAKK", "notes": "human TLR1, NCBI NP_003254.2, the entire intracellular TIR region of residues 625-786; Elutes as distinct dimer and monomer peaks on Superose-12; also called untagged TLR1-TIR"}, "B2": {"name": "human TLR2 TIR domain (TLR2-TIR), residues 633-784, untagged (domain or fragment, UniProt O60603 633-784, looked up)", "chain": "KAPSRNICYDAFVSYSERDAYWVENLMVQELENFNPPFKLCLHKRDFIPGKWIIDNIIDSIEKSHKTVFVLSENFVKSEWCKYELDFSHFRLFDENNDAAILILLEPIEKKAIPQRFCKLRKIMNTKTYLEWPMDEAQREGFWVNLRAAIKS", "notes": "human TLR2, NCBI NP_001305716.1, the entire intracellular TIR region of residues 633-784; 15N-labelled in the NMR experiments; Elutes as distinct dimer and monomer peaks on Superose-12; also called 15N-TLR2-TIR"}, "B3": {"name": "Staphylococcus aureus TIR protein (tirS), full length (natural protein)", "chain": "MSVLETKLKSQMSKSAKIARNMNKLPDEIDRLRKRIERINKKRKPTSSNIRDLEKSNKQLVTKQQKLADLQVEYTKIEKKINETKINLQKEQSRNQKKLSSMLDKNTKGNEEIMEKLLTNSDQINEISNQIKKAVNQKEIIEYDVFLSHSSLDKEDYVSKISEKLIEKGLKVFEDVKVFEIGKSQTETMNMGILNSRFVVVFLSPNFIESGWSRYEFLSFLNREINEEHVIILPIWHKVSVEDVRAYNPYLVDKYALNTSDFSIEEIVEKIYQVIVNSKN", "notes": "Staphylococcus aureus TIR protein (tirS), NCBI WP_000114516.1, full length (CC domain and TIR domain); also called full-length tirS"}},
  "key": {"[1]": {"biological_target": "Enterococcus TIR protein (tirE), full length (Enterococcus)", "test": "SEC; analytical sizing of the full-length bacterial TIR-containing proteins, their CC domains and TIR constructs; sample loads 200 μM, except tirS-TIR E216A 20 μM and tirA-TIR E206A 50 μM"}, "[2]": {"biological_target": "tirA coil-coil (CC) domain (Acinetobacter junii)", "test": "SEC; analytical sizing of the full-length bacterial TIR-containing proteins, their CC domains and TIR constructs; sample loads 200 μM, except tirS-TIR E216A 20 μM and tirA-TIR E206A 50 μM"}, "[3]": {"biological_target": "tirS coil-coil (CC) domain (Staphylococcus aureus)", "test": "SEC; analytical sizing of the full-length bacterial TIR-containing proteins, their CC domains and TIR constructs; sample loads 200 μM, except tirS-TIR E216A 20 μM and tirA-TIR E206A 50 μM"}, "[4]": {"biological_target": "tirE coil-coil (CC) domain (Enterococcus)", "test": "SEC; analytical sizing of the full-length bacterial TIR-containing proteins, their CC domains and TIR constructs; sample loads 200 μM, except tirS-TIR E216A 20 μM and tirA-TIR E206A 50 μM"}, "[5]": {"biological_target": "Acinetobacter junii TIR protein (tirA), full length (Acinetobacter junii)", "test": "SEC; analytical sizing of the full-length bacterial TIR-containing proteins, their CC domains and TIR constructs; sample loads 200 μM, except tirS-TIR E216A 20 μM and tirA-TIR E206A 50 μM"}, "[6]": {"biological_target": "the molecule itself", "test": "SEC; analytical Superose-12; 50 mM Na2HPO4, pH 6.5, 150 mM NaCl, 1 mM DTT; TLR1-TIR and TLR2-TIR also after 30 min in 50 mM DTT (homodimers minimized)"}, "[7]": {"biological_target": "B1", "test": "NMR titration; 15N-TLR2-TIR at 308 μM, unlabeled partner added (TLR1-TIR 308, 616, 924 μM; full-length tirA 308 μM); 15N-HSQC; global fit of several resonances", "details": "both partners purified"}, "[8]": {"biological_target": "human TLR2 TIR domain (TLR2-TIR), residues 633-784, untagged (human) (UniProt O60603)", "test": "SEC; analytical Superose-12; 50 mM Na2HPO4, pH 6.5, 150 mM NaCl, 1 mM DTT; TLR1-TIR and TLR2-TIR also after 30 min in 50 mM DTT (homodimers minimized)"}, "[9]": {"biological_target": "the molecule itself", "test": "SEC; analytical sizing of the full-length bacterial TIR-containing proteins, their CC domains and TIR constructs; sample loads 200 μM, except tirS-TIR E216A 20 μM and tirA-TIR E206A 50 μM"}},
  "data": [
    {"molecule": "Enterococcus TIR protein (tirE), full length (natural protein)", "values": [
      {"measurement": "stoichiometry N", "setting": "[1]", "result": 2}
    ]},
    {"molecule": "tirA coil-coil (CC) domain (domain or fragment)", "values": [
      {"measurement": "stoichiometry N", "setting": "[2]", "result": 2}
    ]},
    {"molecule": "tirS coil-coil (CC) domain (domain or fragment)", "values": [
      {"measurement": "stoichiometry N", "setting": "[3]", "result": 2}
    ]},
    {"molecule": "tirE coil-coil (CC) domain (domain or fragment)", "values": [
      {"measurement": "stoichiometry N", "setting": "[4]", "result": 2}
    ]},
    {"molecule": "Acinetobacter junii TIR protein (tirA), full length (natural protein)", "values": [
      {"measurement": "stoichiometry N", "setting": "[5]", "result": 2}
    ]},
    {"molecule": "B1", "values": [
      {"measurement": "stoichiometry N", "setting": "[6]", "result": 2}
    ]},
    {"molecule": "B2", "values": [
      {"measurement": "Kd", "setting": "[7]", "result": "760 ± 230", "unit": "µM"},
      {"measurement": "stoichiometry N", "setting": "[8]", "result": 2}
    ]},
    {"molecule": "B3", "values": [
      {"measurement": "stoichiometry N", "setting": "[9]", "result": 2}
    ]}
  ]
}
